Measurements taken from patent US6759384 (AVENTIS PHARMACEUTICALS, dated 2004).
Non-standard residues stand in square brackets, D forms with d. No end group written: not given here. *: point of attachment. Ala(1-Me-3-pyridinium) = C[n+]1cccc(C[C@H](N)C(=O)O)c1; Phe(4-guanidino) = N=C(N)Nc1ccc(C[C@H](N)C(=O)O)cc1; Phe(4-CN) = N#Cc1ccc(C[C@H](N)C(=O)O)cc1; Phe(4-NH2) = Nc1ccc(C[C@H](N)C(=O)O)cc1; dPhe(4-F) = N[C@H](Cc1ccc(F)cc1)C(=O)O; 1Nal = N[C@@H](Cc1cccc2ccccc12)C(=O)O; 2Nal = N[C@@H](Cc1ccc2ccccc2c1)C(=O)O; (CH3CH2CH2(CH3))G = N-alkylglycine; Gly(N-cHex) = O=C(O)CNC1CCCCC1; Chg = N[C@H](C(=O)O)C1CCCCC1; Nle = CCCC[C@H](N)C(=O)O; Nphe = O=C(O)CNCc1ccccc1; Dab = NCC[C@H](N)C(=O)O; Tfa = O=C(C(F)(F)F)*

B1: Ac-F(pCN)-I-R-L-P-NH2 (peptide)
peptide: Ac-[Phe(4-CN)]IRLP-NH2
SMILES: CC[C@H](C)[C@H](NC(=O)[C@H](Cc1ccc(C#N)cc1)NC(C)=O)C(=O)N[C@@H](CCCNC(=N)N)C(=O)N[C@@H](CC(C)C)C(=O)N1CCC[C@H]1C(N)=O
B2: Ac-Phe-(pGua)-I-R-L-P-NH2 (peptide)
peptide: Ac-[Phe(4-guanidino)]IRLP-NH2
SMILES: CC[C@H](C)[C@H](NC(=O)[C@H](Cc1ccc(NC(=N)N)cc1)NC(C)=O)C(=O)N[C@@H](CCCNC(=N)N)C(=O)N[C@@H](CC(C)C)C(=O)N1CCC[C@H]1C(N)=O
B3: w-L-R-V-A-NH2 (peptide)
peptide: [dW]LRVA-NH2
modifications: N-terminus assumed
SMILES: CC(C)C[C@H](NC(=O)[C@H](N)Cc1c[nH]c2ccccc12)C(=O)N[C@@H](CCCNC(=N)N)C(=O)N[C@H](C(=O)N[C@@H](C)C(N)=O)C(C)C
B4: Ac-G-y-Nle-R-L-NH2 (peptide)
peptide: Ac-G[dY][Nle]RL-NH2
SMILES: CCCC[C@H](NC(=O)[C@@H](Cc1ccc(O)cc1)NC(=O)CNC(C)=O)C(=O)N[C@@H](CCCNC(=N)N)C(=O)N[C@@H](CC(C)C)C(N)=O
B5: Ac-Y-I-PalMe(3)-L-P-NH2 (peptide)
peptide: Ac-YI[Ala(1-Me-3-pyridinium)]LP-NH2
SMILES: CC[C@H](C)[C@H](NC(=O)[C@H](Cc1ccc(O)cc1)NC(C)=O)C(=O)N[C@@H](Cc1ccc[n+](C)c1)C(=O)N[C@@H](CC(C)C)C(=O)N1CCC[C@H]1C(N)=O
B6: Ac-F(pNH2)-Chg-R-(Chx)G-G-OH (peptide)
peptide: Ac-[Phe(4-NH2)][Chg]R[Gly(N-cHex)]G-OH
SMILES: CC(=O)N[C@@H](Cc1ccc(N)cc1)C(=O)N[C@H](C(=O)N[C@@H](CCCNC(=N)N)C(=O)N(CC(=O)NCC(=O)O)C1CCCCC1)C1CCCCC1
B7: Ac-G-Y-Nle-R-L-NH2 (peptide)
peptide: Ac-GY[Nle]RL-NH2
SMILES: CCCC[C@H](NC(=O)[C@H](Cc1ccc(O)cc1)NC(=O)CNC(C)=O)C(=O)N[C@@H](CCCNC(=N)N)C(=O)N[C@@H](CC(C)C)C(N)=O
B8: Ac-F(pNH2)-I-R-L-P-NH2 (peptide)
peptide: Ac-[Phe(4-NH2)]IRLP-NH2
SMILES: CC[C@H](C)[C@H](NC(=O)[C@H](Cc1ccc(N)cc1)NC(C)=O)C(=O)N[C@@H](CCCNC(=N)N)C(=O)N[C@@H](CC(C)C)C(=O)N1CCC[C@H]1C(N)=O
B9: Ac-Y-I-R-L-P-Dab(Ac-Y-I-R-L-P)-OH (peptide)
peptide: Ac-YIRLP[Dab]-OH
chain: Ac-YIRLP
modifications: also: branched: chain 2 attached to the Dab6 side-chain N
notes: branched peptide
B10: Ac-F(pNH2)-Chg-R-(Bzl)G-G-OH (peptide)
peptide: Ac-[Phe(4-NH2)][Chg]R[Nphe]G-OH
SMILES: CC(=O)N[C@@H](Cc1ccc(N)cc1)C(=O)N[C@H](C(=O)N[C@@H](CCCNC(=N)N)C(=O)N(CC(=O)NCC(=O)O)Cc1ccccc1)C1CCCCC1
B11: Ac-f(pF)-I-R-L-P-NH2 (peptide)
peptide: Ac-[dPhe(4-F)]IRLP-NH2
SMILES: CC[C@H](C)[C@H](NC(=O)[C@@H](Cc1ccc(F)cc1)NC(C)=O)C(=O)N[C@@H](CCCNC(=N)N)C(=O)N[C@@H](CC(C)C)C(=O)N1CCC[C@H]1C(N)=O
B12: f-I-R-I-P-NH2 (peptide)
peptide: [dF]IRIP-NH2
modifications: N-terminus assumed
SMILES: CC[C@H](C)[C@H](NC(=O)[C@H](N)Cc1ccccc1)C(=O)N[C@@H](CCCNC(=N)N)C(=O)N[C@H](C(=O)N1CCC[C@H]1C(N)=O)[C@@H](C)CC
B13: Y-I-R-L-a-NH2 (peptide)
peptide: YIRL[dA]-NH2
modifications: N-terminus assumed
SMILES: CC[C@H](C)[C@H](NC(=O)[C@@H](N)Cc1ccc(O)cc1)C(=O)N[C@@H](CCCNC(=N)N)C(=O)N[C@@H](CC(C)C)C(=O)N[C@H](C)C(N)=O
B14: f-I-R-F-P-NH2 (peptide)
peptide: [dF]IRFP-NH2
modifications: N-terminus assumed
SMILES: CC[C@H](C)[C@H](NC(=O)[C@H](N)Cc1ccccc1)C(=O)N[C@@H](CCCNC(=N)N)C(=O)N[C@@H](Cc1ccccc1)C(=O)N1CCC[C@H]1C(N)=O
B15: f(pF)-I-R-L-P-NH2 (peptide)
peptide: [dPhe(4-F)]IRLP-NH2
modifications: N-terminus assumed
SMILES: CC[C@H](C)[C@H](NC(=O)[C@H](N)Cc1ccc(F)cc1)C(=O)N[C@@H](CCCNC(=N)N)C(=O)N[C@@H](CC(C)C)C(=O)N1CCC[C@H]1C(N)=O
B16: y-I-R-L-A-NH2 (peptide)
peptide: [dY]IRLA-NH2
modifications: N-terminus assumed
SMILES: CC[C@H](C)[C@H](NC(=O)[C@H](N)Cc1ccc(O)cc1)C(=O)N[C@@H](CCCNC(=N)N)C(=O)N[C@@H](CC(C)C)C(=O)N[C@@H](C)C(N)=O

Target: human factor Xa (Enzyme Research Laboratories, Inc.) (human, UniProt P00742 41-179; P00742 235-488, limits assumed)
Assay: chromogenic FXa inhibition
Method: TBS-P buffer (50 mM Tris-Cl, pH 7.8, 200 mM NaCl, 0.05% (w/v) PEG-8000, 0.02% (w/v) NaN_3) was used for this assay. The IC$50$ was determined by combining in appropriate wells of a Costar half-area microtiter plate 25 μl human factor Xa (Enzyme Research Laboratories, Inc.; South Bend Ind.) in TBS-P; 40 μl 10% (v/v) DMSO in TBS-P (uninhibited control) or various concentrations of a peptide to be tested diluted in 10% (v/v) DMSO in TBS-P; and substrate S-2765 (Nα-benzyloxycarbonyl-D-Arg-Gly-L-Arg-p-nitroanilide; Kabi Pharmacia, Inc.; Franklin Ohio) in TBS-P.
The assays were performed by pre-incubating the peptide inhibitor plus enzyme for 10 min, then the assay was initiated by adding substrate to obtain a final volume of 100 μl. The initial velocity of chromogenic substrate hydrolysis was measured by the change in absorbance at 405 nm using a Bio-tek Instruments kinetic plate reader (Ceres UV900HDi) at 25° C. during the linear portion of the time course (usually 1–5 min after addition of substrate). The concentration of inhibitor that caused a 50% decrease in the rate of substrate hydrolysis was predicted by linear regression after plotting the relative rates of hydrolysis (compared to the uninhibited control) versus the log of the peptide concentration. The enzyme concentration was 0.5 nM and substrate concentration was 140 μM.

Chain of human factor Xa (Enzyme Research Laboratories, Inc.) (P00742 41-179 limits assumed, chain 1 of 2): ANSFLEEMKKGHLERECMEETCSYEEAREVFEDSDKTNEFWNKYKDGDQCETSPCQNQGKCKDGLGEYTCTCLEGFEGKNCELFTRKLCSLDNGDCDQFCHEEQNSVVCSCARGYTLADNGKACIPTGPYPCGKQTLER
Chain of human factor Xa (Enzyme Research Laboratories, Inc.) (P00742 235-488 limits assumed, chain 2 of 2): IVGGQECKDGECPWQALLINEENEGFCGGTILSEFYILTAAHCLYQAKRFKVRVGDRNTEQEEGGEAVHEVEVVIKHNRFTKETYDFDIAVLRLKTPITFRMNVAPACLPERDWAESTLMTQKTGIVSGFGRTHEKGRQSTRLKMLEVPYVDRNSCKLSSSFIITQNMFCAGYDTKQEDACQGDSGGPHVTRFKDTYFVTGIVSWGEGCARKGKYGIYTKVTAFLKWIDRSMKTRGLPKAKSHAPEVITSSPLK

| Binder | Ki [µM] |
| --- | --- |
| B1 | < 100 |
| Ac-YIRLP-NH2 (also: reduced pseudo peptide bond ψ(CH2NH) between Y1 and I2) [Ac-Y-{ψ(CH2NH)}-I-R-L-P-NH2] | < 100 |
| Ac-YKRLE-NH2 (also: cyclisation unknown (underlining lost), may be cyclic; underlining lost) [Ac-Y-K-R-L-E-NH2] | < 100 |
| B2 | < 100 |
| XIRLP (N-term Ac; Y1=Y(Me) O-methyl tyrosine; C-term NH2) [Ac-Y(Me)-I-R-L-P-NH2] | < 100 |
| Ac-YIRLP-NH2 (also: reduced pseudo peptide bond ψ(CH2NH) between I2 and R3) [Ac-Y-I-{ψ(CH2NH)}-R-L-P-NH2] | < 100 |
| Ac-WLRLA-NH2 [Ac-W-L-R-L-A-NH2] | < 100 |
| WLRVA-NH2 [W-L-R-V-A-NH2] | < 100 |
| B3 | < 100 |
| Ac-SYIRLP-NH2 [Ac-S-Y-I-R-L-P-NH2] | < 100 |
| GYIRLP-NH2 [G-Y-I-R-L-P-NH2] | < 100 |
| B4 | < 100 |
| Ac-[Phe(4-NH2)][Chg]R[(CH3CH2CH2(CH3))G]G-OH (name runs over rows r100 and r101) [Ac-F(pNH2)-Chg-R-(CH3CH2CH2(CH3))G-G-OH] | < 100 |
| B5 | < 100 |
| B6 | < 100 |
| Ac-GGYIRG-NH2 [Ac-G-G-Y-I-R-G-NH2] | < 100 |
| B7 | < 100 |
| Ac-YIRL [Ac-Y-I-R-L] | < 100 |
| FIRL-NH2 (probably F-I-R-L-NH2) [F-I-R-L-N-H2] | < 100 |
| Tfa-[N(iBu)Y]IRG-NH2 [Tfa-(iBu)Y-I-R-G-NH2] | < 100 |
| YIRI-NH2 [Y-I-R-I-NH2] | < 100 |
| Ac-YNRL-NH2 [Ac-Y-N-R-L-NH2] | < 100 |

| Binder | Ki [µM] |
| --- | --- |
| Ac-YIRI [Ac-Y-I-R-I] | < 100 |
| B8 | < 100 |
| Ac-[2Nal]IRLP-NH2 [Ac-Nal(2)-I-R-L-P-NH2] | < 100 |
| B9 | < 100 |
| Ac-[1Nal]IRLP-NH2 [Ac-Nal(1)-I-R-L-P-NH2] | < 100 |
| YIRLP (N-term Ac; D-Tyr at 1; C-term NH2) [Ac-y-I-R-L-P-NH2] | < 100 |
| Ac-YIRLP-NH2 (also: pseudo peptide bond ψ(CH2N(Ac)) between Y1 and I2) [Ac-Y-{ψ(CH2N(Ac))}-I-R-L-P-NH2] | < 100 |
| B10 | < 100 |
| B11 | < 100 |
| B12 | < 100 |
| YIRLA-NH2 [Y-I-R-L-A-NH2] | < 100 |
| B13 | < 100 |
| YIRGA-NH2 [Y-I-R-G-A-NH2] | < 100 |
| [dY]IRGP-NH2 (also: R3-G4 (COCH2) bond replaces peptide bond) [y-I-R(COCH2)-G-P-NH2] | < 100 |
| {N‑morpholinyl‑CO}-FIRLP-NH2 [N-morpholinyl-CO-F-I-R-L-P-NH2] | < 100 |
| B14 | < 100 |
| B15 | < 100 |
| Ac-[dY]IRLA [Ac-y-I-R-L-A] | < 100 |
| B16 | < 100 |
| YIRIY-NH2 [Y-I-R-I-Y-NH2] | < 100 |
| Ac-YIRLAAFT-NH2 [Ac-Y-I-R-L-A-A-F-T-NH2] | < 100 |
